Laboratory results reported in publication PMC9482650, “Quantitative fragmentomics allow affinity mapping of interactomes” (Nature Communications, 2022).

T1: TJP3_3, O95049
T1 sequence (O95049 375-456, limits assumed, looked up): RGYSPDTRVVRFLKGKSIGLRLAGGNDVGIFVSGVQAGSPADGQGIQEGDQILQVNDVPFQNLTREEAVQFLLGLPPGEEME

T2: TIAM2, Q8IVF5
T2 sequence (Q8IVF5 885-986, limits assumed, looked up): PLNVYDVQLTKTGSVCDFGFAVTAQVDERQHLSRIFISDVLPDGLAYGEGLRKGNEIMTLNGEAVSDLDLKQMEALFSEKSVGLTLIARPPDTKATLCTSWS

T3: NHERF3_1, Q5T2W1
T3 sequence (Q5T2W1 4-100, limits assumed, looked up): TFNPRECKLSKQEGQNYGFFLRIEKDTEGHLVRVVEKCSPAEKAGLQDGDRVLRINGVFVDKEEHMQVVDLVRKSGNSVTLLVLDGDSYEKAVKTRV

T4: MPP2, Q14168
T4 sequence (Q14168 180-250, limits assumed, looked up): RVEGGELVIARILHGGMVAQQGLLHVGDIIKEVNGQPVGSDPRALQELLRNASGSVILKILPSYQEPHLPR

T5: DFNB31_3, Q9P202
T5 sequence (Q9P202 811-907, limits assumed, looked up): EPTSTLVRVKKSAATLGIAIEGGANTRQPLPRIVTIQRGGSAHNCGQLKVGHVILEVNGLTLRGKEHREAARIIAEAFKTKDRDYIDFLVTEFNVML

T6: SHANK1, Q9Y566
T6 sequence (Q9Y566 658-767, limits assumed, looked up): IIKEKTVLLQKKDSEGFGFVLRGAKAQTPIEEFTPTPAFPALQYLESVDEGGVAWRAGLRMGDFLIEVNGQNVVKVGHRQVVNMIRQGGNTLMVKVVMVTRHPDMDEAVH

T7: PCLO, Q9Y6V0
T7 sequence (Q9Y6V0 4491-4600, limits assumed, looked up): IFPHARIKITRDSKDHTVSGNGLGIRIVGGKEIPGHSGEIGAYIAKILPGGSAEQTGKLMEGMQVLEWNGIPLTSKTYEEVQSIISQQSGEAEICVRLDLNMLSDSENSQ

T8: NHERF3_3, Q5T2W1
T8 sequence (Q5T2W1 238-333, limits assumed, looked up): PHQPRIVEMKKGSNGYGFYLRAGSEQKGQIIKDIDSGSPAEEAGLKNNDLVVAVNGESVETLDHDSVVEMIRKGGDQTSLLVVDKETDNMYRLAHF

T9: LNX2_2, Q8N448
T9 sequence (Q8N448 334-432, limits assumed, looked up): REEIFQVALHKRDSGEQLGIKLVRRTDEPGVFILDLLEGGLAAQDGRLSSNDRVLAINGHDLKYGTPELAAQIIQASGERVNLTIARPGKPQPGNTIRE

T10: GRIP1_5, Q9Y3R0
T10 sequence (Q9Y3R0 568-668, limits assumed, looked up): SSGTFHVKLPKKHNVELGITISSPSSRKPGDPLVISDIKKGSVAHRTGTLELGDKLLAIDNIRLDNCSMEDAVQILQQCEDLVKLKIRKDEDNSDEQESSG


Key:
Test in all cases: holdup assay
Set-up in all cases: key: below the threshold = too weak to quantify, mostly under pKd 3.1 to 4
Details in all cases: plain residues with an end cap or a label only (N-terminal biotin on a linker: ado-ado)
[1] = molecular target: T1, TJP3_3, O95049
[2] = molecular target: DLG4_1, P78352
[3] = molecular target: PTPN3, P26045
[4] = molecular target: Inadl_6, Q8NI35
[5] = molecular target: FRMPD2_3, Q68DX3
[6] = molecular target: MAGI2_6, Q86UL8
[7] = molecular target: DLG5_1, Q8TDM6
[8] = molecular target: T2, TIAM2, Q8IVF5
[9] = molecular target: IL16_1, Q14005
[10] = molecular target: T3, NHERF3_1, Q5T2W1
[11] = molecular target: DLG4_2, P78352
[12] = molecular target: NOS1, P29475
[13] = molecular target: T4, MPP2, Q14168
[14] = molecular target: DLG2_2, Q15700
[15] = molecular target: T5, DFNB31_3, Q9P202
[16] = molecular target: T6, SHANK1, Q9Y566
[17] = molecular target: T7, PCLO, Q9Y6V0
[18] = molecular target: TJP1_3, Q07157
[19] = molecular target: T8, NHERF3_3, Q5T2W1
[20] = molecular target: GRID2IP_1, A4D2P6
[21] = molecular target: T9, LNX2_2, Q8N448
[22] = molecular target: Inadl_8, Q8NI35
[23] = molecular target: GORASP1, Q9BQQ3
[24] = molecular target: PICK1, Q9NRD5
[25] = molecular target: T10, GRIP1_5, Q9Y3R0
[26] = molecular target: MAGI2_2, Q86UL8
[27] = molecular target: NHERF4_1, Q86UT5-2
NHERF4_1, Q86UT5-2, sequence (Q86UT5 other isoform, or with tags, fused parts or gaps): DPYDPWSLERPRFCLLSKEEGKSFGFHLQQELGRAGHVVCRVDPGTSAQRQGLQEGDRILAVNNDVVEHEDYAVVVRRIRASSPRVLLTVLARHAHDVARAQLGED

GORASP1, Q9BQQ3, sequence (Q9BQQ3 1-208): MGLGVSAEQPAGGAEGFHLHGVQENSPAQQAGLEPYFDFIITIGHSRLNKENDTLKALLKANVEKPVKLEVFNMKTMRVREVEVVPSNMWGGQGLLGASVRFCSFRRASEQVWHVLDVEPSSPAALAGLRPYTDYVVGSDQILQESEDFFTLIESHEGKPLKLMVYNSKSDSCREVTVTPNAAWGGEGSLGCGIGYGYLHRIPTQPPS
MAGI2_2, Q86UL8, sequence (Q86UL8 410-522): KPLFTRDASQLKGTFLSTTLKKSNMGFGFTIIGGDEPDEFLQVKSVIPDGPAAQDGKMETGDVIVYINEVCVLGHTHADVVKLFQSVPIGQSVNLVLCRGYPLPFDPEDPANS
PTPN3, P26045, sequence (P26045 505-587): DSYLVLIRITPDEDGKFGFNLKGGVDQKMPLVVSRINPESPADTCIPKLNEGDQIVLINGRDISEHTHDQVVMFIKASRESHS
DLG4_1, P78352, sequence (P78352 62-152): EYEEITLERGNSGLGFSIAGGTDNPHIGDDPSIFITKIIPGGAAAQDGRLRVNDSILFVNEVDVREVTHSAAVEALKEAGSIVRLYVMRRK
MAGI2_6, Q86UL8, sequence (Q86UL8 1141-1229): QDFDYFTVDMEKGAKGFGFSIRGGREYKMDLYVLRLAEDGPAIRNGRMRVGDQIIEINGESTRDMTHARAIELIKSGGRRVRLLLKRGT
NOS1, P29475, sequence (P29475 9-101): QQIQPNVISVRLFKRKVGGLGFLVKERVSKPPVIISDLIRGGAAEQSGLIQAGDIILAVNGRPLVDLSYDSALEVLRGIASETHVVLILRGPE
PICK1, Q9NRD5, sequence (Q9NRD5 17-115): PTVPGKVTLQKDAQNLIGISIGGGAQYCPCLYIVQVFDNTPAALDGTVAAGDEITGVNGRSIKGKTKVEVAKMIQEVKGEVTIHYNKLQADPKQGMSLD
Inadl_8, Q8NI35, sequence (Q8NI35 1425-1530): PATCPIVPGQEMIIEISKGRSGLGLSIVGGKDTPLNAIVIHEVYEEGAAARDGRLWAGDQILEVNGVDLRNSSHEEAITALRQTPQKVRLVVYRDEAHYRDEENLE
DLG2_2, Q15700, sequence (Q15700 189-283): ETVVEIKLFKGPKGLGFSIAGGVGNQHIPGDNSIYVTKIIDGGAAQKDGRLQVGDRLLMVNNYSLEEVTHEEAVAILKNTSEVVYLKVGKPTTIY
FRMPD2_3, Q68DX3, sequence (Q68DX3 1073-1166): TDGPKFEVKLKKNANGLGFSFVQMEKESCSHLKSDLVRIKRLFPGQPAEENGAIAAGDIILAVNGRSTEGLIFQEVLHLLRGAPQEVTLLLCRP
GRID2IP_1, A4D2P6, sequence (A4D2P6 1-87): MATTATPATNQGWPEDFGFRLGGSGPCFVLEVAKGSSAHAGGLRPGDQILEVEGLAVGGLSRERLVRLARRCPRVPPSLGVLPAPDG
Inadl_6, Q8NI35, sequence (Q8NI35 1058-1167): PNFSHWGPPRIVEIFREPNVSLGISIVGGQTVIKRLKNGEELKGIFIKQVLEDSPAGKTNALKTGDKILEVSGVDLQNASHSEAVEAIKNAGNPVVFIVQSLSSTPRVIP
DLG4_2, P78352, sequence (P78352 155-259): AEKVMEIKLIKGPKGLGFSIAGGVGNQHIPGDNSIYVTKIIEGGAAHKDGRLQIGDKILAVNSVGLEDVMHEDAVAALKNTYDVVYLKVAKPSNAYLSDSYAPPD
DLG5_1, Q8TDM6, sequence (Q8TDM6 617-713): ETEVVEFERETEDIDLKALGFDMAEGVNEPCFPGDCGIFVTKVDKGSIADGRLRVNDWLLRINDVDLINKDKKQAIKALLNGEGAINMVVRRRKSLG
IL16_1, Q14005, sequence (Q14005 210-306): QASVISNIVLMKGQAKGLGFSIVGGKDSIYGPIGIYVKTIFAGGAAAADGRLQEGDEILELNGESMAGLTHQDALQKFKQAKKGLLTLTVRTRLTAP
TJP1_3, Q07157, sequence (Q07157 416-512): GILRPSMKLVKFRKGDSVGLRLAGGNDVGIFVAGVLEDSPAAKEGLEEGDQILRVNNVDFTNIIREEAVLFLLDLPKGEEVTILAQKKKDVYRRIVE

Row | pKd [1] | pKd [2] | pKd [3] | pKd [4] | pKd [5] | pKd [6] | pKd [7] | pKd [8] | pKd [9] | pKd [10] | pKd [11] | pKd [12] | pKd [13] | pKd [14] | pKd [15] | pKd [16] | pKd [17] | pKd [18] | pKd [19] | pKd [20] | Binder | further results
1 | below the threshold | 3.88 | 4.9 | below the threshold | below the threshold | below the threshold | below the threshold | below the threshold | below the threshold | 3.64 | 3.9 | below the threshold | below the threshold | 3.52 | 3.64 | below the threshold | below the threshold | below the threshold | below the threshold | below the threshold | KEKASTETEC [TRPM1, Q7Z4N2] | pKd [21]: below the threshold; pKd [22]: below the threshold; pKd [23]: below the threshold; pKd [24]: below the threshold; pKd [25]: below the threshold; pKd [26]: below the threshold; pKd [27]: 3.66
2 | 4.98 | 4.03 | 4.75 | 5.43 | 4.04 | 5.88 | below the threshold | 4.17 | 5.24 | 4.86 | 4.69 | 4.06 | below the threshold | 4.19 | 3.99 | 4.62 | below the threshold | 3.63 | below the threshold | below the threshold | PLPPEEESWV [GAS2L2, Q8NHY3] | pKd [21]: 5.07; pKd [22]: 3.8; pKd [23]: 4.22; pKd [24]: below the threshold; pKd [25]: below the threshold; pKd [26]: below the threshold; pKd [27]: below the threshold
3 | below the threshold | below the threshold | 3.94 | below the threshold | below the threshold | below the threshold | below the threshold | 4.05 | below the threshold | below the threshold | below the threshold | 3.84 | below the threshold | below the threshold | below the threshold | below the threshold | below the threshold | below the threshold | below the threshold | below the threshold | MQILSKPEFI [NPSR1, Q6W5P4] | pKd [21]: below the threshold; pKd [22]: below the threshold; pKd [23]: 4.15; pKd [24]: 4.08; pKd [25]: below the threshold; pKd [26]: below the threshold; pKd [27]: 3.62

More lines, now with the values behind:

Row | Binder | pKd [1] | pKd [2] | pKd [3] | pKd [4] | pKd [5] | pKd [6] | pKd [7] | pKd [8] | pKd [9] | pKd [10] | pKd [11] | pKd [12] | pKd [13] | pKd [14] | pKd [15] | pKd [16] | pKd [17] | pKd [18] | pKd [19] | pKd [20] | further results
4 | STYCDYTIEI [FAM71C, Q8NEG0] | below the threshold | below the threshold | 4.16 | below the threshold | below the threshold | below the threshold | below the threshold | 4.15 | below the threshold | below the threshold | below the threshold | 3.62 | below the threshold | below the threshold | 3.86 | below the threshold | below the threshold | below the threshold | below the threshold | below the threshold | pKd [21]: 4.96; pKd [22]: below the threshold; pKd [23]: 4.72; pKd [24]: below the threshold; pKd [25]: below the threshold; pKd [26]: below the threshold; pKd [27]: below the threshold
5 | RSPVATATSC [DUSP5, Q16690] | below the threshold | below the threshold | 4.05 | below the threshold | below the threshold | below the threshold | below the threshold | 4.09 | below the threshold | 3.53 | below the threshold | below the threshold | below the threshold | below the threshold | below the threshold | 3.55 | below the threshold | below the threshold | below the threshold | below the threshold | pKd [21]: 3.75; pKd [22]: below the threshold; pKd [23]: below the threshold; pKd [24]: 3.97; pKd [25]: below the threshold; pKd [26]: below the threshold; pKd [27]: 3.59
6 | KIEDVEITLV [FCHSD2, O94868] | below the threshold | 3.89 | 3.5 | 4.23 | below the threshold | 4.24 | 3.52 | below the threshold | 3.48 | 4.13 | 4.2 | 3.8 | below the threshold | 3.74 | 4.79 | 4.1 | below the threshold | below the threshold | below the threshold | below the threshold | pKd [21]: 5.6; pKd [22]: 3.99; pKd [23]: 3.91; pKd [24]: below the threshold; pKd [25]: below the threshold; pKd [26]: 3.77; pKd [27]: 3.73
